Assay results: the DeepSol protein solubility set

Assay: soluble on expression in E. coli; label from the status in PepcDB or PDB records
For “VQLSPDLLATLPEPASPGRQACGRRHKKRTFLRPRIIGGSSSLPGSHPWLAAIYIGDSFCAGSLVHTCWVVSAAHCFSHSPPRDSVSVVLGQHFFNRTTDVTQTFGIEKYIPYTLYSVFNPSDHDLVLIRLKKKGDRCATRSQFVQPICLPEPGSTFPAGHKCQIAGWGHLDENVSGYSSSLREALVPLVADHKCSSPEVYGADISPNMLCAGYFDCKSDACQGDSGGPLACEKNGVAYLYGIISWGDGCGRLHKPGVYTRVANYVDWINDRIRPPRRLVAPS”, the “soluble on expression in E. coli” value was “soluble”.
In the case of “TIEARTAQSTPSAPPQKVMCVSMGSTTVRVSWVPPPADSRNGVITQYSVAYEAVDGEDRGRHVVDGISREHSSWDLVGLEKWTEYRVWVRAHTDVGPGPESSPVLVRTDEDVPSGPPRKVE”, the “soluble on expression in E. coli” value is reported as “soluble”.
For “MRVYVGVDTGGTFTDFVYWDGKEWRVLKIPSTPSNPAEAVLKGLEKLRRGKALDVVHGSTVATNALLERKGAKTALITNKGFEDVIEIGRQNRERLYDLYYRKPKPLVPRELRFGLNCRINAKGEVLKPINREELKEILKALKEKGVESVAVCMLHSYANPEHEKEVEEELKKNLSVFVSLSSEILPEFREYERCSTTVINAYVSPKMSKYLYYLKDRLREGDLFRVMQSNGGLISPETASKEAVRTILSGPAGGVIGALHLGKLAGFEKLITFDMGGTSTDVSLIYGTPNITTESKIDGLPVKVPMIDINTVGAGGGSIAYVDEGGALRVGPQSAGAQPGPICYGRGGKEITVTDANLFLGRLVPEHFLGGEMKLYPELLEEPFKEMAKKIGLAPTELAEGIIKVANSSMERAIRKVSVERGYNPEEFALFSFGGAGGLHAVLLAKSLNIPKVIIPRNPGLLSAVGMLFADIVKDKVTTVMLKEEEAKPETLEKLFLLMEEKVLSEMEGEGFPPEKVFVERFLDVRYKGQSYEITIPFGENFKETFEKEHERLYGYAHRGRKIEIVNLRIKATGIKEKPPLKEFKERGDKYPKDAILGEREVVFEGRLETFKVLDREKLVYGNVIDFPAIVVEYSSTTLIPPYATAEVDRYGNLIITLL”, the “soluble on expression in E. coli” value was “not soluble”.
In the case of “MSRNVGVLGQMSEINDHLYLSGAGVLKPDKIKQRKINMIVNATTEEPSTYMQGVDTMKIRIEDHPYARLNEHFDVVADKIRNVKERGGKTLVHCMAGVSRSASLVMIYLVKHEHMTLRQAYHYVKAARPIIRPNVGFWKQMVDYEKRLRGTASVKMVQTPECDMPIPDVYADDIRRMQINREISRHSLPSAQSSASKQRAFSASTYRPSVSSASSLATSSLRRAYSPSSLPASSLALTTSYSLFSPAPTRKPRQSLFSMYSTSPRHNFFSAF”, the “soluble on expression in E. coli” value is reported as “not soluble”.
With “AHHHHHHGSQRLEESTSCRGVGDMRKAIIVGVGMTPVGEHWRSSLRDLAVEAILNAMDDAGIDKVDSLYVGNMASGSFVEQENLGALIADWAGLGNIPAVKIEAACASGGAAVQEGAKAVLSGLEDVVLVVGVEKMTDAWPSDATRYLGYAADAEWELFHGASFVALNALIMRLYMNTYGYKEEDLALFAVNAHANGAKNPYAMFKKPITVETVMKSPYIADPLKLFDASPVCDGAAAVIITTPEKAKELGIPKDKWIEIAGMGRAIDTINLANREDFLTLKAATIAAERAYKMAGVKPEDVDFFEVHDAFTVMAALSLEALGVAKKGEGAKLAIEGQIAIDGDYPIQTMGGLKARGHPVGATGVYQVVEAVLQLRGEAPDGIQVPDAEVGLTQNIGGTGSNITVTVLRRV” the “soluble on expression in E. coli” value was “soluble”.
With “MSLARELRKGKSNAIGMLFGDPSSGFQSRLHHAALQACNDAGYFLTAGLFREEEDNWDEQLTQFLNRTSIEKMILVPPLCGSTALHDRLIEQGASFVLVSPSRAVAVAHAVCMDDRRAAREITEHLLGLGHRRIAHITGPSDHAATRLRREGFEDAMRAVGDGALRPDWIRPGLFRFKPALECARQILTGPDRPTAIFAANDEMAAAVCFAANSLGLRVPDDLSVVGFDDVAIATTMWPPLTTVAQPYAQMARESVRLLTEVGPPGDAGQAAEKVTIDHALKVRQSTAAEGHHHHHH” the “soluble on expression in E. coli” value was “soluble”.
With “MPEKYTTPYPARRIHSDGRAEDTEVLLAKECPVKLFLDGKQFTTLFASPLELKELAVGHLITEGILSFKEIAGVEVEGNEVHILTLKGKHPIQDESSRPAGGETKKQIFVNSDAVFDPEALFEGIAYLESDTYKLTRGTHLAALIDKKGKLAVQIVDVGRHNAVDKVVGAAFLRMIDLSQHYMLSTGRQPAYMVTKAARAGIPLVATKAMPFDSGVEAAKKANLCLVGQLRKESMLVFTNEWRVRIAAALEHHHHHH” the “soluble on expression in E. coli” value was “not soluble”.
In the case of “MSLTADPPACTVPAAGVSSTHKLVNGGAEKIVFKIKSSNNNEYRIAPVFGFVDPSGSKDVVITRTAGAPKEDKLVVHFASAPADATDAQAAFVAVAPAGTVTIPMSATA”, the “soluble on expression in E. coli” value is reported as “soluble”.
For “MGSDKIHHHHHHMKIVTYSKNVFIPLTRNCRNRCDYCGFRSEEIGVMSAEEVRKILSAARGAKEALFTFGERPDEVYPEFKAMLLEMGYKSMVDYILEMNKIAVEMGFLPHTNAGILSKEEMRKLKPYNASMGLMLEQAVELECHANSPGKKPEVRIKMIRDAGKLQIPFTTGILVGIGEGREDRLYSLEIIAEIQDNYGHIQEVIVQNFKPKKGTPMENTPPPTLEEMLEAVKAAREILPQEVAIQIPPNLVDDIYPFLKAGANDVGGISNVTHDYINPESPWPEVERLERALRGEFILKERLPIYPRFVKLKWYGEALEPLIEKYSDADGYARP”, the “soluble on expression in E. coli” value was “not soluble”.
With “MGSDKIHHHHHHMFDWEDLRHFSAFSSAGSLSAAAKTLGVDHATVARRIASLEASLQLKLVDRRPRAYALTHEGQRVAELAEQMAMSSFALEHFASAGQQTVEGEVVLSAPPALLGSIIARRLGELYQRYPQLRLKLVGSKSKASLVRREADISIALARPTEPTLVVSLLGHLDYRLYASPGYLASATVRRYIGYDESQARSPQQQWLNLQAGQQPFALHSNDLRIQAQACAGGIGIACLPAFMAQEHGLKEAGSAQQTMSIEIWLAVHEDVRATPRIKAVTDFLQQQVRPLLRL” the “soluble on expression in E. coli” value was “not soluble”.
In the case of “MGSDKIHHHHHHMTALDDKTIVRDYFNATGFDRWSRIYGDGEVNFVQKNIRIGHQRTVDTVLSWLEADGNLSDRSFCDAGCGVGSLSLPLAQRGAQAVYASDISAKMVEEARERASQIPNLNNIQLEVSDLASLSGRYDTVICLDVLIHYPESDAAAMLSHLCSLAEQRVLVSFAPKSPVLNVLKRIGQFFPGASKTTRAYQHSETAIAAALAANGFQVQRRAFNKAPFYFSLLLEAVRTA”, the “soluble on expression in E. coli” value is reported as “not soluble”.
With “MSVLQRIVSRRTQLSESGRQIGDWVLANAAQAAAMTSQDLAAWANVSQSSIVKFTQRLGFKGYSEFKLALTEELGRKQVMVNQPLHSNILADDPVAVIAQKLVQTKTEAMFHTTNALRLDEFSEAISWIQQAVRVQIIGIGGSALVAKDLAFKLLKLGITALTEQDSHVQIATARTLHSQDVLIAISFSGEKREILIAAEAAKQQGAKVIALTTPNKNRLREIADLALDTIADETQHRSSAIASRTAQNVLTDLIFLTLTQQRETSARQLIDDISSDIRQMR” the “soluble on expression in E. coli” value was “not soluble”.
In the case of “MSLDLHYKQFLLLNLYRQDKCLLAEVLLKDSSEFSFGVKFFNYGQLIAYIDSLNSNVYNASITENSFFMTFFRSYIIENTSHKNIRFFLENVECPFYLRHNEVQEFMFAMTLFSCGNFDQSYEIFQLHDYPEAINDKLPTFLEDLKSENYHGDSIWKDLLCTFTVPYRHSAFYYQLSLLFDRNNSQEFALKCISKSAEYSLKEIQIEELQDFKEKQHIHYLNLLIHFRMFEEVLDVLRLGHECLSDTVRTNFLQLLLQEDIYSRDFFSTLLRLCNAHSDNGELYLRTVDIKIVDSILSQNLRSGDWECFKKLYCFRMLNKSERAAAEVLYQYILMQADLDVIRKRKCYLMVINVLSSFDSAYDQWILNGSKVVTLTDLRDELRGEGHHHHHH”, the “soluble on expression in E. coli” value is reported as “not soluble”.
For “GMQIESFKSLLPKYKCIFFDAFGVLKTYNGLLPGIENTFDYLKAQGQDYYIVTNDASRSPEQLADSYHKLGLFSITADKIISSGMITKEYIDLKVDGGIVAYLGTANSANYLVSDGIKMLPVSAIDDSNIGEVNALVLLDDEGFNWFHDLNKTVNLLRKRTIPAIVANTDNTYPLTKTDVAIAIGGVATMIESILGRRFIRFGKPDSQMFMFAYDMLRQKMEISKREILMVGDTLHTDILGGNKFGLDTALVLTGNTRIDDAETKIKSTGIVPTHICESAVIEL”, the “soluble on expression in E. coli” value was “soluble”.
With “MVNYKEKLDEAIHLTQQKGFEQTRAEWLMLDVFQWTRTDFVVHMHDDMPKAMIMKFDLALQRMLLGEPIQYIVGFASFYGRTFDVNSNCLIPRPETEEVMLHFLQQLEDDATIVDIGTGSGVLAITLKCEKPDLNVIATDISLEAMNMARNNAEKHQSQIQFLTGDALKPLINEGIKLNGLISNPPYIDEKDMVTMSPTVTRFEPHQALFADNHGYAIYESIIEDLPHVMEKGSPVVFEIGYNQGEALKSIILNKFPDKKIDIIKDINGHDRIVSFKW” the “soluble on expression in E. coli” value was “not soluble”.
In the case of “LLSDYYHKRFGVDTRSVRFPGLISNVTLPGGGTTDYAVDIYYAAVKEGRFTCPIKEGTYMDMMYMPDALRACVELMEADPARLVHRNSFNITAMSFEPSQIAAAVKKLVPDFVMNYEVDPLRQGIAESWPNSLDDSCARSEWDWKPDYDLDSMSADMIQILKARYGK”, the “soluble on expression in E. coli” value is reported as “not soluble”.
In the case of “MGSDKIHHHHHHMSDVDTHPIDRGAGGHNPQKPIRVAQIVGKMVGGGVEAVVMNYYRHIDRSKVQFDFLVDEDSTRVPEEEITSLGGRVFRIPPYQHPIRYRRELIRLMREQQWPIVHSNINTLSVFPLSAAKKVGVPVRIAHSHSTMGKGEFAKNVMKLVLRPFANVYPTVRFACSRYAGKWLFGKNADFTVIPNAIELDKFRFNTEMRKQTRKELGISDDTFLIGHVGRFMPQKNQTFLVDVLAGLLPKRPDAMLAFVGDGPDRTAVQQHVEELGMADHVLFLGQRSDVNRLYQAFDAFCLPSLYEGLGIVAVEAQVADLPCLLSDVVPSEADVTASSYFLQITDVKPWIETLSNLHSSKRSDQISGDIEEYDIQRCANSLVKKYESFICK”, the “soluble on expression in E. coli” value is reported as “not soluble”.
In the case of “MSENSIRLTQYSHGAGCGCKISPKVLETILHSEQAKFVDPNLLVGNETRDDAAVYDLGNGTSVISTTDFFMPIVDNPFDFGRIAATNAISDIFAMGGKPIMAIAILGWPINKLSPEIAREVTEGGRYACRQAGIALAGGHSIDAPEPIFGLAVTGIVPTERVKKNSTAQAGCKLFLTKPLGIGVLTTAEKKSLLKPEHQGLATEVMCRMNIAGASFANIEGVKAMTDVTGFGLLGHLSEMCQGAGVQARVDYDAIPKLPGVEEYIKLGAVPGGTERNFASYGHLMGEMPREVRDLLCDPQTSGGLLLAVMPEAENEVKATAAEFGIELTAIGELVPARGGRAMVEIR”, the “soluble on expression in E. coli” value is reported as “not soluble”.
In the case of “MSLSKIKEIRTKVYQWNGKTVPPQNNFCTNASDLLFEKSDAMGSFRFHEWLICEIETDDGVIGIGNAALAPQIAKKTIDTYLKPLVIGEDPFDYAYIWEKMYRRTHAWGRRGIGMVAISAIDIAIWDIMGKITNKPVFKLLGGRTKEKIPVYASKLYSQPIKALQKEAESYVKQGFKMFKMRFGWGPKDGPDGMKKNIALAEAVREVIGEDTDLMMECYMGWNLDYAKRMIPKLMKFNPRWLEEPVIADDIHGYEELNKMNMIPISGGEHEFNIFGFKQLLDLKAVSYIQYDNNRVGGFTAAQKINAIAEAHQVPVIPHAGQMHNYHLTMSNFNCPISEFFPVHDVEIGNELFYYIFEGDPAPKDGFIDLDDNKPGLGLTITDKYKSDFKIIEEGHHHHHH”, the “soluble on expression in E. coli” value is reported as “soluble”.
For “MQFSKMHGLGNDFMVVDAVTQNVYFSPELIRRLADRHTGVGFDQMLVVEPPYDPELDFHYRIFNADGSEVSQCGNGARCFARFVRLKGLTNKREISVSTQTGRMILSVTEDEQVCVNMGEPDFEPQTVPFRAAKAEKTYILRAAEHTVLCGVVSMGNPHCVMQVDDVSVANVALLGPVLENHERFPERANIGFMQVVSRDHIRLRVYERGAGETQACGSGACAAVAVGVVQDLLNENVHVELPGGSLHIRWQGPGHPLYMTGPATHVYDGFIHL”, the “soluble on expression in E. coli” value was “not soluble”.
